Results taken from patent publication US20120121587A1 (Chugai, published 2012).

Target: T1, Human recombinant AXL-FND1 (GST-FND1), from pET-41b(+) (human, UniProt P30530 225-331)
T1 construct: Expressed in E. coli, purified on Glutathione Sepharose; analyte in all Biacore measurements; GST put first by the usual layout of pET-41; not shown: GST-tag of vector pET-41b(+) (Novagen)
T1 sequence (looked up): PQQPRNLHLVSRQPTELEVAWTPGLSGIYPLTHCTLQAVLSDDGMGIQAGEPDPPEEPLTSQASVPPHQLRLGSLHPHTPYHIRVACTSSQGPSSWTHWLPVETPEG
Test: SPR (Biacore T100): antibody captured on Protein A, GST-FND1 as analyte
Procedure: Kinetic analyses of antigen-antibody reactions of humanized AXL antibodies were carried out using Biacore T100 (BIACORE). rec-Protein A (Zymed) (hereinafter, Protein A) was immobilized onto a sensor chip, various antibodies were bound to it, then an antigen as the analyte was flushed to measure the antibody-antigen interaction. Human recombinant AXL-FND1 (prepared in 2-2; hereinafter referred to as GST-FND1) prepared at various concentrations was used as the antigen. From the sensorgrams obtained through the measurements, kinetic parameters, namely binding rate constant kₐ (1/Ms) and dissociation rate constant kd (1/s), were calculated, and Kd (M) was calculated based on these values. Biacore T100 Evaluation Software (BIACORE) was used to calculate each of the parameters.
The sensor chips were produced by immobilizing approximately 3000 RU of Protein A onto CM5 (BIACORE) by amine coupling. Using the produced sensor chip, kinetic analyses were carried out on the interaction between the Protein A-bound antibodies and GST-FND1. HBS-EP+ was used as the running buffer, and the flow rate was set to 30 μL/min. Each antibody was prepared at 1 μg/mL using the running buffer, and was subjected to binding with Protein A for two minutes. GST-FND1 as the analyte was prepared at 0.5 and 2.0 μg/mL using HBS-EP+. Measurements were carried out by first binding the various humanized AXL antibodies, chimeric AXL antibodies, or mouse AXL antibodies of interest to Protein A, then applying an analyte solution to them for a two-minute interaction, and then switching to HBS-EP+ (BIACORE) for a two-minute measurement of the dissociation phase. After completion of measurement of the dissociation phase, 30 μL of 10 mM glycine-HCl (pH 2.0) was used for washing to regenerate the sensor chip. Such binding, dissociation, and regeneration were defined as one cycle of analysis. All experiments were performed at 25° C.
Affinity evaluation of each of the variants by Biacore was carried out by the method of Example 2.

B1: H32/L10 (antibody, human IgG1, kappa)
heavy: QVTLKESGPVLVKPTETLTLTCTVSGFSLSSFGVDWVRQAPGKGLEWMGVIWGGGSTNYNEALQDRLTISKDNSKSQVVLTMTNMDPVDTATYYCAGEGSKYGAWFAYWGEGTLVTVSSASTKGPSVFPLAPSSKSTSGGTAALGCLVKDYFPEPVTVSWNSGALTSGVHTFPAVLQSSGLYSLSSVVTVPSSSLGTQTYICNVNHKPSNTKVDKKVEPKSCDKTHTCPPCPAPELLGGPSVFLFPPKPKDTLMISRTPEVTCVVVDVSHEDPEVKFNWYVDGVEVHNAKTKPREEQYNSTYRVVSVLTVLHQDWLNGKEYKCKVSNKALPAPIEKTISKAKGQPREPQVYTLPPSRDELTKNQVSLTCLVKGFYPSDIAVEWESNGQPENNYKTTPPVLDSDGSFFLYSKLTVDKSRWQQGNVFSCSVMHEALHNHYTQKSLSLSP
light: DVVMTQSPLSLPVTLGQPASISCRSSQNIVHTNGNTYLEWYQQKPGKAPELLIYKVSNRFSGVPDRFSGSGSGTDFTLKISRVEAEDVGVYYCFQGSHIPFTFGQGTKVEIERTVAAPSVFIFPPSDEQLKSGTASVVCLLNNFYPREAKVQWKVDNALQSGNSQESVTEQDSKDSTYSLSSTLTLSKADYEKHKVYACEVTHQGLSSPVTKSFNRGEC
A Kd of 2.8 nM was found for B1 in this work.

B2: H32/L11 (antibody, human IgG1, kappa)
heavy: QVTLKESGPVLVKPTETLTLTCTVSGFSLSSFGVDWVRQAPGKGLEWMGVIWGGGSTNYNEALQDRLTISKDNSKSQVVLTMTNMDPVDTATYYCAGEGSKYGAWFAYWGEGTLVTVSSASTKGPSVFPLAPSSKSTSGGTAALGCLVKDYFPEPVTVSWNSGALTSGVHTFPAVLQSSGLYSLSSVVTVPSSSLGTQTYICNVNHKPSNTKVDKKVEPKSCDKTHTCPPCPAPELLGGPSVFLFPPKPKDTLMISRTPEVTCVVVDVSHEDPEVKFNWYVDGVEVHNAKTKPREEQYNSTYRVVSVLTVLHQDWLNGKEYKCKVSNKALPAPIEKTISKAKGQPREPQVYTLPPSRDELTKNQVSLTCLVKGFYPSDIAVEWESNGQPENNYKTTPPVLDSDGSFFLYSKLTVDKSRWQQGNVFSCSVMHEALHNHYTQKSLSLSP
light: DVVMTQSPLSLPVTLGQPASISCQSSQNIVHTNGNTYLEWYQQKPGKAPELLIYKVSNRFSGVPDRFSGSGSGTDFTLKISRVEAEDVGVYYCFQGSHIPFTFGQGTKVEIERTVAAPSVFIFPPSDEQLKSGTASVVCLLNNFYPREAKVQWKVDNALQSGNSQESVTEQDSKDSTYSLSSTLTLSKADYEKHKVYACEVTHQGLSSPVTKSFNRGEC
A Kd of 2.74 nM was found for B2 in this work.

B3: H32/L12 (antibody, human IgG1, kappa)
heavy: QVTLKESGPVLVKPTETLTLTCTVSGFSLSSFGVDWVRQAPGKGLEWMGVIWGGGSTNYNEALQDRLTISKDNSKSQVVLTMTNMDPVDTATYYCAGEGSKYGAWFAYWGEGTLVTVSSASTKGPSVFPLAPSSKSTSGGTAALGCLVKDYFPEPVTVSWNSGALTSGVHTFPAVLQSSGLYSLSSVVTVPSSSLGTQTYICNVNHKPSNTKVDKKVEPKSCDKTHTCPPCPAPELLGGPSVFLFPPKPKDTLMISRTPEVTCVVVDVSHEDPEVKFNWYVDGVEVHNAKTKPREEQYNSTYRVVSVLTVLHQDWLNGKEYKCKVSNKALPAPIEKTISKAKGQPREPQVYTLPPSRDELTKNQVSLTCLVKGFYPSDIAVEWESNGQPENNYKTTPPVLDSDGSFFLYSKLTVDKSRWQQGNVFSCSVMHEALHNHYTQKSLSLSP
light: DVVMTQSPLSLPVTLGQPASISCQSSQNIVHTNGNTYLEWYQQKPGEAPELLIYKVSNRFSGVPDRFSGSGSGTDFTLKISRVEAEDVGVYYCFQGSHIPFTFGQGTKVEIERTVAAPSVFIFPPSDEQLKSGTASVVCLLNNFYPREAKVQWKVDNALQSGNSQESVTEQDSKDSTYSLSSTLTLSKADYEKHKVYACEVTHQGLSSPVTKSFNRGEC
A Kd of 2.64 nM was found for B3 in this work.

B4: H32/L13 (antibody, human IgG1, kappa)
heavy: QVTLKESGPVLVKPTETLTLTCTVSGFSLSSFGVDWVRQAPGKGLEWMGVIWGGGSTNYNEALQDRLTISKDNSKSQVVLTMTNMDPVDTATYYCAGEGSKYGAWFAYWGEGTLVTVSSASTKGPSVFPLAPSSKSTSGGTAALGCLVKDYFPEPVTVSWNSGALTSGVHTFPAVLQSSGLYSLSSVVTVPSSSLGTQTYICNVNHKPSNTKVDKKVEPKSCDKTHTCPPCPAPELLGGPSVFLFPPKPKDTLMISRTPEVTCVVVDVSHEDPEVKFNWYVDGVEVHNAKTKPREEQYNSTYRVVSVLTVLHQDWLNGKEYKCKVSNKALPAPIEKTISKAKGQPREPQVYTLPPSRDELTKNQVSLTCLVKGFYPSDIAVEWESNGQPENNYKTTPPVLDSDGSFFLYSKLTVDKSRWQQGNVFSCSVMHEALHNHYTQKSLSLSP
light: DVVMTQSPLSLPVTLGQPASISCQSSQNIVHTNGNTYLEWYQQKPGQAPELLIYKVSNRFSGVPDRFSGSGSGTDFTLKISRVEAEDVGVYYCFQGSHIPFTFGQGTKVEIERTVAAPSVFIFPPSDEQLKSGTASVVCLLNNFYPREAKVQWKVDNALQSGNSQESVTEQDSKDSTYSLSSTLTLSKADYEKHKVYACEVTHQGLSSPVTKSFNRGEC
A Kd of 2.74 nM was found for B4 in this work.

B5: H33/L0 (antibody, human IgG1, kappa)
heavy: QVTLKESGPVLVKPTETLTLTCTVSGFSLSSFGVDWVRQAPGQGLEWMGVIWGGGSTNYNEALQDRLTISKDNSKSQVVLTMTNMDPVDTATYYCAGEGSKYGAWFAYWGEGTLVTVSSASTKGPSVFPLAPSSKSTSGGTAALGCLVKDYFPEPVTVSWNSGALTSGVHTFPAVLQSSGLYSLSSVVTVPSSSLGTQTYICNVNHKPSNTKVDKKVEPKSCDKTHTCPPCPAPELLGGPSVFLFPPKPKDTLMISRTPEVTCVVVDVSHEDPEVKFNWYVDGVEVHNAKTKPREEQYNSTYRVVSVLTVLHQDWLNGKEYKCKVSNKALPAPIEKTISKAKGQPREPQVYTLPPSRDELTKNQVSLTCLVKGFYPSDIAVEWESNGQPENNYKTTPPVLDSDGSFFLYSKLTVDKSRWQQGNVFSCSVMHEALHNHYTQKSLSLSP
light: DVVMTQSPLSLPVTLGQPASISCRSSQNIVHTNGNTYLEWYQQKPGKAPELLIYKVSNRFSGVPDRFSGSGSGTDFTLKISRVEAEDVGVYYCFQGSHIPFTFGQGTKLEIKRTVAAPSVFIFPPSDEQLKSGTASVVCLLNNFYPREAKVQWKVDNALQSGNSQESVTEQDSKDSTYSLSSTLTLSKADYEKHKVYACEVTHQGLSSPVTKSFNRGEC
A Kd of 3.04 nM was found for B5 in this work.

B6: H33/L11 (antibody, human IgG1, kappa)
heavy: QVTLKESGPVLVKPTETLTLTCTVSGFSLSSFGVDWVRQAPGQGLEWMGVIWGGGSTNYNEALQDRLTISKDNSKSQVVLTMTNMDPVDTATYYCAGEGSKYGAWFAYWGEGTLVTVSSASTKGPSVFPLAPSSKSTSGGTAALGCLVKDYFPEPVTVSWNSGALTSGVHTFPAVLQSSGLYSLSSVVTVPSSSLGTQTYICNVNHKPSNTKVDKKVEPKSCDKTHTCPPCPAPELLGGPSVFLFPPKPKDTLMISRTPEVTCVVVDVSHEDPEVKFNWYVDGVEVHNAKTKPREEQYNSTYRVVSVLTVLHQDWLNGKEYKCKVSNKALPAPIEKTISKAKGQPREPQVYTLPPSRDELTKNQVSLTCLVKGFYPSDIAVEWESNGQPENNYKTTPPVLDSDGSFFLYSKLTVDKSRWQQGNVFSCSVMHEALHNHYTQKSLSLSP
light: DVVMTQSPLSLPVTLGQPASISCQSSQNIVHTNGNTYLEWYQQKPGKAPELLIYKVSNRFSGVPDRFSGSGSGTDFTLKISRVEAEDVGVYYCFQGSHIPFTFGQGTKVEIERTVAAPSVFIFPPSDEQLKSGTASVVCLLNNFYPREAKVQWKVDNALQSGNSQESVTEQDSKDSTYSLSSTLTLSKADYEKHKVYACEVTHQGLSSPVTKSFNRGEC
A Kd of 3.06 nM was found for B6 in this work.

B7: H33/L12 (antibody, human IgG1, kappa)
heavy: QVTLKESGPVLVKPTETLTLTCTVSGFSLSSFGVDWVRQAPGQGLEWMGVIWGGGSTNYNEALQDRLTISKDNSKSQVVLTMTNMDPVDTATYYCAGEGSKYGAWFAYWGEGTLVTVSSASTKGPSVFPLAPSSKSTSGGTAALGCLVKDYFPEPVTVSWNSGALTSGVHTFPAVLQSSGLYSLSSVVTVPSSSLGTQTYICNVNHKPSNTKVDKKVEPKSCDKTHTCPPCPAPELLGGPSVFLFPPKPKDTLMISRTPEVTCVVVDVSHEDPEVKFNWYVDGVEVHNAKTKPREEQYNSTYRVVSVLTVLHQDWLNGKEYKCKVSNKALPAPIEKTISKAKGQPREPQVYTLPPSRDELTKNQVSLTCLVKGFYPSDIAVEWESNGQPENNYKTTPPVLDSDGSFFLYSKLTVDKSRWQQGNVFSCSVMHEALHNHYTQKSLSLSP
light: DVVMTQSPLSLPVTLGQPASISCQSSQNIVHTNGNTYLEWYQQKPGEAPELLIYKVSNRFSGVPDRFSGSGSGTDFTLKISRVEAEDVGVYYCFQGSHIPFTFGQGTKVEIERTVAAPSVFIFPPSDEQLKSGTASVVCLLNNFYPREAKVQWKVDNALQSGNSQESVTEQDSKDSTYSLSSTLTLSKADYEKHKVYACEVTHQGLSSPVTKSFNRGEC
A Kd of 3.06 nM was found for B7 in this work.

B8: H33/L13 (antibody, human IgG1, kappa, V domains shown)
VH: QVTLKESGPVLVKPTETLTLTCTVSGFSLSSFGVDWVRQAPGQGLEWMGVIWGGGSTNYNEALQDRLTISKDNSKSQVVLTMTNMDPVDTATYYCAGEGSKYGAWFAYWGEGTLVTVSS
VL: DVVMTQSPLSLPVTLGQPASISCQSSQNIVHTNGNTYLEWYQQKPGQAPELLIYKVSNRFSGVPDRFSGSGSGTDFTLKISRVEAEDVGVYYCFQGSHIPFTFGQGTKVEIER
A Kd of 3.02 nM was found for B8 in this work.

B9: H34/L0 (antibody, human IgG1, kappa, V domains shown)
VH: QVTLKESGPVLVKPTETLTLTCTVSGFSLSKFGVDWVRQAPGKGLEWMGVIWGGGSTNYNSALKSRLTISKDNSKSQVVLTMTNMDPVDTATYYCAGEGSKYGAWFAYWGQGTLVTVSS
VL: DVVMTQSPLSLPVTLGQPASISCRSSQNIVHTNGNTYLEWYQQKPGKAPELLIYKVSNRFSGVPDRFSGSGSGTDFTLKISRVEAEDVGVYYCFQGSHIPFTFGQGTKLEIKR
A Kd of 5.94 nM was found for B9 in this work.
